According to US20250388684A1 (SICHUAN SWIFTBIO BIOTECHNOLOGY, published 2025):
Read-outs that look alike come from different tables or passages of the source.

T1: human CCR4 (human, UniProt P51679 1-360)
T1 construct: whole, on cells; also called h.CCR4; HEK293T-h.CCR4
T1 sequence (looked up): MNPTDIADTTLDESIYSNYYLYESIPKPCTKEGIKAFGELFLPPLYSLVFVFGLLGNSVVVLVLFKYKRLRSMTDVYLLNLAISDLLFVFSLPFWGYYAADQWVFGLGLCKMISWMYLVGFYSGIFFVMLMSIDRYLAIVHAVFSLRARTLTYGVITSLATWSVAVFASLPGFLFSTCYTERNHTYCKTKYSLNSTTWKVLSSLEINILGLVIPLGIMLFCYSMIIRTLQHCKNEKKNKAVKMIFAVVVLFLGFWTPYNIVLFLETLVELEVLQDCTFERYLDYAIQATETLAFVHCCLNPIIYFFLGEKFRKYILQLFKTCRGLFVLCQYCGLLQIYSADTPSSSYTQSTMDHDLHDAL


Tests used:
cynomolgus monkey CCR8 [1] = molecular target: T2, cynomolgus monkey CCR8 (cynomolgus monkey, UniProt G7NYJ2 1-355); assay: FACS on HEK293T-c.CCR8 cells
T2 construct: whole, on cells; also called c.CCR8; HEK293T-c.CCR8
T2 sequence (G7NYJ2 entry or part of it): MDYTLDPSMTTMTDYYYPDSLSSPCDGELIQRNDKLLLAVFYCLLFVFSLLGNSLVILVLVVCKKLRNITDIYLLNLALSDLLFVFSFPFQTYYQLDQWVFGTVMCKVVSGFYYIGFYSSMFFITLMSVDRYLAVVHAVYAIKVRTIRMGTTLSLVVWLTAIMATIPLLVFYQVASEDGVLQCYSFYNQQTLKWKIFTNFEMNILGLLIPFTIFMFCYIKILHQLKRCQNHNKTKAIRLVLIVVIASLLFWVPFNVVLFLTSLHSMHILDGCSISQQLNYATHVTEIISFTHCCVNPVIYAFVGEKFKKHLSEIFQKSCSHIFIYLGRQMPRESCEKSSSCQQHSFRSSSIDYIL

[2] = molecular target: T3, human CCR8 (C-C chemokine receptor type 8) (human, UniProt P51685 1-355); assay: cell-based or functional assay
T3 sequence (P51685 whole entry): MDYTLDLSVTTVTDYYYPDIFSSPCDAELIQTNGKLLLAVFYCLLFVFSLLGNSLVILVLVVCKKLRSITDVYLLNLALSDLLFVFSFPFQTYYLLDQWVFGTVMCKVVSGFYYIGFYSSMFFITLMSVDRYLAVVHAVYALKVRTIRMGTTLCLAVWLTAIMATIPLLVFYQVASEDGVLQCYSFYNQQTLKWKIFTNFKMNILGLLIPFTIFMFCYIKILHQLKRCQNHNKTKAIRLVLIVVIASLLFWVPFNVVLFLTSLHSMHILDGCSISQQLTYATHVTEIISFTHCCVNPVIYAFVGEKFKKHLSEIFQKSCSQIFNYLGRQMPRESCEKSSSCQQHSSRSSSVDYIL

human CCR4 [3] = molecular target: T1, human CCR4; assay: FACS on HEK293T-h.CCR4 cells
Protocol: The specificity of humanized monoclonal antibodies against human CCR4 was assessed using FACS. HEK293T-h.CCR4 cells were collected, washed, and resuspended in 1% BSA (in PBS). Each well of a 96-well V-bottom plate received 3×10\hat{ }5 cells, followed by the addition of the test antibodies at a final concentration of 20 μg/mL and incubation at 4° C. for one hour. After washing, 1 μL of fluorescent secondary antibody (Biolegend, Catalog No.: 410708) was added, and the mixture was incubated. The cells were washed and resuspended for detection using a flow cytometer (Beckman, Model: CytoFLEX).

[4] = molecular target: T3, human CCR8 (C-C chemokine receptor type …); assay: FACS on HEK293T-h.CCR8 cells, test 1
Protocol: (§1) The affinity of humanized monoclonal antibodies against human CCR8 was assessed using FACS. The experimental procedure was as follows: HEK293T-h.CCR8 cells were digested and collected by centrifugation, followed by three washes with pre-cooled PBS. The cells were resuspended in 1% BSA (in PBS), with 3×10\hat{ }5 cells added to each well of a 96-well V-bottom plate (50 μL per well). Prepare the antibody dilution series in 1% BSA (in PBS), starting from 40 μg/mL. Perform a 3-fold serial dilution across 10 concentration points. Add 50 μL per well to the cells, so that the final antibody concentration in the wells starts from 20 μg/mL. Mix thoroughly and incubate at 4° C. for 1 hour. The cells were collected by centrifugation, washed three times with pre-cooled PBS, resuspended in 50 μL 1% BSA (in PBS), and 1 μL of fluorescent secondary antibody (Biolegend, Catalog No.: 410708) was added to each well. The mixture was incubated at 4° C. for 30 minutes, followed by three washes with pre-cooled PBS. The cells were then resuspended in 200 μL PBS for detection.

human CCR4 [5] = molecular target: T1, human CCR4; assay: FACS on HEK293T-h.CCR4 cells; remark: listed apart in the source
Protocol: Evaluate the specificity of anti-human CCR8 mouse monoclonal antibodies using FACS. The experimental steps are as follows: digest HEK293T-h.CCR4 cells, centrifuge to collect the cells, and wash three times with pre-cooled PBS. Resuspend the cells in 1% BSA (in PBS), adding 3×10\hat{ }5 cells in a volume of 50 μL to each well of a 96-well V-bottom plate. Dilute the antibody to be tested in 1% BSA (in PBS) to 20 μg/mL, take 50 μL per well, and add it to the cells, resulting in a final antibody concentration of 10 μg/mL. Mix and incubate at 4° C. for 1 hour. Centrifuge to collect the cells and wash three times with pre-cooled PBS. Resuspend the cells in 50 μL of 1% BSA (in PBS), add 1 μL of fluorescent secondary antibody to each well, mix, and incubate at 4° C. for 0.5 hours. Centrifuge to collect the cells, wash three times with pre-cooled PBS, resuspend the cells in 200 μL of PBS, and analyze them.

[6] = molecular target: T3, human CCR8 (C-C chemokine receptor type …); assay: FACS on HEK293T-h.CCR8 cells, mouse antibody
[7] = molecular target: T3, human CCR8 (C-C chemokine receptor type …); assay: FACS on HEK293T-h.CCR8 cells, test 2 (anti-human Alexa Fluor 647 secondary antibody)
Protocol: as §1

cynomolgus monkey CCR8 [8] = molecular target: T2, cynomolgus monkey CCR8; assay: FACS on HEK293T-c.CCR8 cells, mouse antibody

binding result (cynomolgus monkey CCR8 [1])	ADCC activity EC50 [2]	ADCP activity EC50 [2]	Inhibition rate of CCL1-mediated cell migration (%) at 50 µg/mL, BaF3-h.CCR8 cells, Transwell [2]	binding result (human CCR4 [3])	EC50 [4]	binding result (human CCR4 [5])	EC50 [6]	EC50 [7]	EC50 (cynomolgus monkey CCR8 [8])	Binder
no binding	0.0052 µg/mL	0.107 µg/mL	60.1%	no binding (tested: 20 µg/mL)	0.0796 µg/mL	–	–	–	–	96F1C4-hz (humanized anti-human CCR8 monoclonal antibody, human IgG1) (antibody, V domains shown, Built in the pTT5-h.IgG1 vector) VH: QVQLVESGAEVKKPGSSVKVSCKASGYTFTDYEMHWVRQAPGQGLEWMGAFDPKTGGTAYAQKFQGRVTLTADKSTSTAYMELSSLRSEDTAVYYCARRRFFDVWGQGTLVTVSS VL: DAVMTQTPLSLSVTPGQPASISCRSSQSLEHSNGNTYLHWYLQKPGQSPQLLIYRVSNRFSGVPDRFSGSGSGTDFTLKISRVEAEDVGVYYCLQVTHVPFTFGQGTKVEIKR
no binding	0.0148 µg/mL	–	–	no binding (tested: 20 µg/mL)	0.322 µg/mL	–	–	–	–	76H1F11-hz (humanized anti-human CCR8 monoclonal antibody, human IgG1) (antibody, V domains shown) VH: QVQLVESGAEVKKPGSSVKVSCKASGYTFTDYEIHWVRQAPGQGLEWMGAIKPETGGTAYAQKFQGRVTLTSDKSTSTAYMELSSLRSEDTAVYYCTRRRYFDVWGQGTLVTVSS VL: DAVMTQTPLSLSVTPGQPASISCRSSQSLEHSDGITYLHWYLQKPGQSPQLLIYRVSNRFSGVPDRFSGSGSGTDFTLKISRVEAEDVGVYYCLQVTHVPFTFGQGTKVEIKR
–	–	–	–	–	–	no binding (tested: 10 µg/mL)	0.16 nM	–	–	96F1C4 (anti-human CCR8 mouse monoclonal antibody) (antibody, V domains shown, Mouse antibody purified from hybridoma supernatant) VH: QVQLQQSGAELVRPGASVTLSCKASGYTFTDYEMHWVKQTPVHGLEWIGAFDPKTGGTAYNQKFKGKAILTADKSSSTAYMELRSLTSEDSAVYYCARRRFFDVWGAGTTVTVSS VL: DAVMTQTPLSLPVSLGDQASISCRSSQSLEHSNGNTYLHWYLQKPGQSPQLLIYRVSNRFSGVLDRFSGSGSGTDFTLKISRVEAEDLGVYFCLQVTHVPFTFGTGTKLEIK
–	0.00117 µg/mL	0.0647 µg/mL	73.5%	–	–	–	–	0.0244 µg/mL	–	13F3H6-hz-eADCC (13F3H6-hz with ADCC-enhanced IgG1 Fc) (antibody, also called 13F3H6-eADCC) heavy: EVQLVESGGGLVQPGESLRLSCAASGFTFNAYAMNWVRQAPGQGLEWVARIRTKSNNYATYYADSVKGRFTISRDDSKNTLYLEMNSLRAEDTAVYYCVRHKKVREGYAMDYWGQGTLVTVSSASTKGPSVFPLAPSSKSTSGGTAALGCLVKDYFPEPVTVSWNSGALTSGVHTFPAVLQSSGLYSLSSVVTVPSSSLGTQTYICNVNHKPSNTKVDKKVEPKSCDKTHTCPPCPAPELVGGPSVFLLPPKPKDTLMISRTPEVTCVVVDVSHEDPEVKFNWYVDGVEVHNAKTKPPEEQYNSTLRVVSVLTVLHQDWLNGKEYKCKVSNKALPAPIEKTISKAKGQPREPQVYTLPPSREEMTKNQVSLTCLVKGFYPSDIAVEWESNGQPENNYKTTPLVLDSDGSFFLYSKLTVDKSRWQQGNVFSCSVMHEALHNHYTQKSLSLSPGK light: not shown
–	–	–	–	–	–	no binding (tested: 10 µg/mL)	0.37 nM	–	0.288 µg/mL	13F3H6 (anti-human CCR8 mouse monoclonal antibody) (antibody, V domains shown, Mouse antibody purified from hybridoma supernatant) VH: EVQLVESGGGLVRPKGSLKFSCAASGFTFNAYAMNWVRQAPGKGLEWVARIRTKSNNYATYYADSVKDRFTISRDDSENMLYLQMNNLKTEDTAIYYCVRHKKVREGYAMDYWGQGTSVTVSS VL: DIVLTQSPASLVLSLGQRATISCRASKSVSTSGYTYMHWYQQKPGQPPKLLIYLASNLESGVPARFSGSGSGTDFTLNIHPVEEEDAATYYCQHSRELPFTFGSGTKLEIK
